# Source: the supplement of paper PMC10567573
# B1: PTPRD (parent)
# chain: PVVSMDLDPQPITDEEEGLIWVVG
# B2: MYBL2 (parent)
# chain: FPNRTDQQCQYRWLRVLNPDLVKG
# Variants of: B1
# Assay: protein stability index of a GFP-peptide fusion (GPS, HEK-293T) (PSI 1-6); higher = more stable
# Settings: c terminus: a fixed tail appended
# 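Note: lentivirally expressed fusions sorted by FACS into six bins by GFP to DsRed ratio, PSI derived from sequencing read proportions per bin multiplied by bin number.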
row,Variant,protein stability index
1,P9Q,4.05
2,P9T,4.18
3,P9F,1.93
4,P9D,4.52
5,P9G,4.54
6,P9Y,3.41
7,P9R,3.58
8,P9W,2.96
9,P9I,3.23
10,P9K,3.71
11,P9V,3.19
12,P9A,2.88
13,P9N,4.12
14,P9C,3.67
15,I20S,4.64
16,I20V,4.87
17,I20G,4.92
18,I20P,5.16
19,I20E,5.35
20,I20H,4.32
21,I20D,4.8
22,I20L,2.99
23,I20N,4.31
24,I20K,4.64

row,Variant,protein stability index
1,I20Q,4.95
2,S4D,3.92
3,S4I,2.28
4,S4Y,1.99
5,S4M,2.75
6,S4V,2.42
7,S4L,2.89
8,S4N,4.01
9,S4W,1.83
10,S4H,3.31
11,S4P,4.45
12,S4G,4.17
13,S4E,5.11
14,S4Q,4.02
15,S4T,3.73
16,S4C,3.56
17,S4F,2.65
18,S4R,3.82
19,E17L,2.56
20,E17S,2.88
21,E17K,3.12
22,E17C,2.25
23,E17Q,4.18
24,E17P,2.38

row,Variant,protein stability index
1,E17T,3.31
2,E17D,4.26
3,E17V,1.75
4,E17Y,1.38
5,E17G,3.34
6,E17A,2.26
7,E17I,1.8
8,E17N,3.37
9,E17M,1.69
10,E17R,2.75
11,W21V,4.27
12,W21D,5.06
13,W21T,4.69
14,W21Q,5.18
15,W21H,5.47
16,W21I,3.62
17,W21S,5.43
18,W21L,3.33
19,W21F,4.08
20,W21A,6
21,W21C,4.69
22,W21Y,4.1
23,D8N,3.55
24,D8I,2.53

row,Variant,protein stability index
1,D8Y,2.74
2,D8W,2.52
3,D8L,3.31
4,D8T,3.61
5,D8P,3.56
6,D8E,3.92
7,D8H,2.1
8,D8M,3.29
9,D8A,3.73
10,D8G,3.8
11,D8C,2.61
12,D8V,3.25
13,L7V,4.01
14,L7E,4.89
15,L7S,4.33
16,L7P,3.4
17,L7A,4.31
18,L7W,3.52
19,L7N,4.74
20,L7H,3.48
21,L7Y,4.27
22,L7F,4.79
23,L7R,4.4
24,L7T,2.63

row,Variant,protein stability index
1,L7I,3.94
2,L7M,3.29
3,L7G,4.87
4,L7C,3.54
5,I12F,2.78
6,I12N,4.28
7,I12K,4.84
8,I12M,3.75
9,I12D,4.52
10,I12L,3.95
11,I12S,3.64
12,I12R,4.74
13,I12E,4.94
14,I12C,3.66
15,I12Y,2.86
16,I12G,4.49
17,I12H,4.07
18,I12V,4.28
19,E16W,2.27
20,E16D,4.08
21,E16T,2.87
22,E16S,3.36
23,E16C,1.94
24,E16Y,2.79

row,Variant,protein stability index
1,E16F,1.07
2,E16A,3.22
3,E16H,3.2
4,E16V,1.5
5,E16Q,3.79
6,E16P,2.79
7,V22R,3.89
8,V22C,3.9
9,V22S,4.7
10,V22Q,4.63
11,V22L,3.94
12,V22H,4.85
13,V22T,4.26
14,V22D,5.28
15,V22N,4.37
16,V22F,2.54
17,V22G,4.92
18,V22E,5.47
19,V22K,4.57
20,V22Y,5.12
21,V22W,3.79
22,E15D,2.31
23,E15K,3.16
24,E15N,3.67

row,Variant,protein stability index
1,E15S,2.9
2,E15Q,3.77
3,E15T,2.33
4,E15W,1.61
5,E15P,3.19
6,E15C,3.25
7,E15G,3.21
8,E15R,3.57
9,G18M,2
10,G18S,3.98
11,G18H,3.52
12,G18E,4.22
13,G18D,4.59
14,G18Q,3.37
15,G18L,3.16
16,G18R,3.28
17,G18P,3.19
18,G18N,4.42
19,G18K,3.72
20,G18Y,2.27
21,G18C,2.63
22,L19S,4.21
23,L19T,4.91
24,L19Q,3.66

row,Variant,protein stability index
1,L19V,3.56
2,L19F,3.65
3,L19A,4.6
4,L19N,4.57
5,L19W,3.37
6,L19E,4.54
7,V3N,3.92
8,V3M,3.61
9,V3L,3.74
10,V3Y,3.88
11,V3S,3.18
12,V3H,3.38
13,V3W,4.09
14,V3E,4.81
15,V3I,3.49
16,V3K,3.48
17,V3P,3.82
18,V3F,3.86
19,V3Q,3.87
20,V3G,3.98
21,V3D,3.91
22,V3A,3.17
23,V3T,4.66
24,Q10L,3.74

row,Variant,protein stability index
1,Q10M,3.88
2,Q10S,2.77
3,Q10R,3.89
4,Q10D,4.27
5,Q10W,3.8
6,Q10T,3.73
7,Q10Y,2.92
8,Q10A,3.56
9,Q10K,3.76
10,Q10N,3.42
11,Q10P,3.75
12,Q10I,4.09
13,Q10C,3.08
14,Q10G,3.99
15,T13N,3.87
16,T13I,2.71
17,T13S,3.13
18,T13V,3.58
19,T13D,4.13
20,T13C,3.84
21,T13W,2.47
22,T13P,3.36
23,T13A,3.87
24,T13L,3.07

row,Variant,protein stability index
1,T13Y,2.9
2,D14N,3.9
3,D14E,3.78
4,D14R,2.31
5,D14G,3.87
6,D14C,2.9
7,D14S,4.05
8,D14M,2.36
9,D14A,2.58
10,D14I,4.15
11,D14L,2.06
12,D14Y,2.27
13,D14F,2.14
14,V2I,3.05
15,V2D,3.95
16,V2S,4.51
17,V2T,4.09
18,V2L,3.93
19,V2Q,3.94
20,V2R,4.6
21,V2G,4.23
22,V2F,3.16
23,V2E,4.23
24,V2P,4.05

row,Variant,protein stability index
1,V2Y,3.56
2,V2A,4.31
3,V2K,2.77
4,V2C,4.26
5,V2M,4.2
6,V2N,3.84
7,V2H,3.67
8,V23M,4.55
9,V23D,5.36
10,V23L,3.06
11,V23C,3.9
12,V23A,4.67
13,V23H,4.93
14,V23G,5.27
15,M5V,3.92
16,M5T,4.01
17,M5Q,4.62
18,M5N,4.7
19,M5F,3.48
20,M5H,4.66
21,M5Y,3.54
22,M5G,5.16
23,M5D,4.71
24,M5A,4.97

row,Variant,protein stability index
1,M5S,3.77
2,M5C,4.64
3,M5R,4.31
4,M5W,3.51
5,M5L,3.97
6,M5K,4.64
7,P11H,3.8
8,P11K,3.68
9,P11C,3.36
10,P11I,2.93
11,P11N,3.36
12,P11F,3.25
13,P11Y,2.67
14,P11A,4.67
15,P11Q,4.39
16,P11T,3.77
17,P11M,4.27
18,D6S,3.4
19,D6I,2.56
20,D6Q,3.5
21,D6H,3.24
22,D6F,2.36
23,D6N,4.53
24,D6C,3.6

row,Variant,protein stability index
1,D6A,4.22
2,D6E,4.24
3,D6P,3.48
4,D6T,3.25
5,D6V,2.7
6,D6L,3.35
7,D6R,3.67
8,D6W,1.94
9,D6K,2.99
10,D6Y,2.25
11,P1H,3.02
12,P1Y,1.52
13,P1C,3.12
14,P1V,1.86
15,P1D,4.28
16,P1E,3.2
17,P1N,3.58
18,P1Q,3.81
19,P1G,3.77
20,P1T,2.22
21,P1L,1.79
22,P1W,2.17
23,P1F,1.19
24,P1R,2.62

# Variants of: B2
# Assay: as above
# Settings: c terminus: a fixed tail appended
row,Variant,protein stability index
1,G24H,1.41
2,G24E,2.02
3,G24R,1.74
4,G24Y,1.85
5,G24A,1.41
6,G24P,2.26
7,G24D,1.94
8,G24F,1.85
9,G24S,1.68
10,G24K,2.01
11,G24Q,1.91
12,G24W,1.55
13,G24C,1.89
14,G24V,1.71
15,G24N,2.44
16,G24I,1.43
17,G24M,2.18
18,G24T,1.87
19,G24L,2.35
20,K23W,1.27
21,K23V,1.4
22,K23Y,1.38
